Assay results reported in US20240343803A1 (SHANDONG SIMCERE BIOPHARMACEUTICAL, published 2024).

T1: Fusion protein of extracellular domain of human TIGIT and mouse IgG2a Fc fragment (human TIGIT ECD-mFc) (human)
T1 construct: The entry includes the signal peptide (limits not recoverable) and the mouse IgG2a Fc
T1 chain: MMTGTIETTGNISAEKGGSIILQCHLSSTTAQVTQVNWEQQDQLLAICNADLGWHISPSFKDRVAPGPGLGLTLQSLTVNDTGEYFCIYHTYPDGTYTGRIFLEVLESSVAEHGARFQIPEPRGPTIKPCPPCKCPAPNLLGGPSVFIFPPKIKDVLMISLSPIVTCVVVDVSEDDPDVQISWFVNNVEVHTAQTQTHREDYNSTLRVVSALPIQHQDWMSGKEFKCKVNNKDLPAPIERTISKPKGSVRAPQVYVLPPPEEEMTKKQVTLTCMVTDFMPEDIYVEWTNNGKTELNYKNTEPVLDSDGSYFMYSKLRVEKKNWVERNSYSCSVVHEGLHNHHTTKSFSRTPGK

T2: Fusion protein of extracellular domain of human TIGIT and His-tag (human TIGIT ECD-his) (human)
T2 chain: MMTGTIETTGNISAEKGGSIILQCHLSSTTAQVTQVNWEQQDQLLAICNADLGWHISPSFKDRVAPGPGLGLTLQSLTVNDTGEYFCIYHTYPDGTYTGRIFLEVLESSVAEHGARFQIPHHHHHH

T3: Full-length human TIGIT on CHO-K1 cells (CHO-K1 human TIGIT) (human, UniProt Q495A1 22-244)
T3 construct: NCBI XP_024309156.1; the entry includes the signal peptide (limits not recoverable); The strain (high, medium, low) is named under assay; also called high expression strain 1D2; medium expression strain 2D10
T3 sequence: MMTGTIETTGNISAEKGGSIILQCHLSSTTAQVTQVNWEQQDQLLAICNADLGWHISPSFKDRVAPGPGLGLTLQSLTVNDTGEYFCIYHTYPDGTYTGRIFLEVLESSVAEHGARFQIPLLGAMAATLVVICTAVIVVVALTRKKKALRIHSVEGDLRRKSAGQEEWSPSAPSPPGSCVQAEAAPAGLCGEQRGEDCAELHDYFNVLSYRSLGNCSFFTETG


Assays:
[1] = target: T1, Fusion protein of extracellular domain …; assay: ELISA, human TIGIT ECD-mFc
Description: (§1) After discarding the coating solution, the plate was added with 5% skim milk powder (Sangon Biotech, CAT #A600669-0250)-PBS, 250 μL/well, and incubated at 37° C. for 2-4 hours. […] The enzyme-labeled plate was then washed with 0.05% Tween 20-PBS for 3 times on the Microplate Washer, added with tested antibodies diluted to 13 nM with 1% BSA (diluted by 3-fold serial dilution for 12 concentration points), 50 μL/well, and incubated at 37° C. for 1.5-2 hours. The plate was washed with 0.05% Tween 20-PBS for 3 times on the Microplate Washer, then added with HRP enzyme-labeled antibodies (Merck, CAT #AP113P) diluted with 1% BSA (Sangon Biotech, CAT #A500023-0100)-PBS at a dilution ratio of 1:5000, 50 μL/well, and incubated at 37° C. for 1 hour. After washing 3 times with 0.05% Tween 20-PBS on the Microplate Washer, the plate was added with TMB chromogenic solution (KPL, CAT #52-00-03), 50 μL/well, and incubated at room temperature for 7-10 minutes. 1M HCL, 50 μL/well, was then added into the plate to terminate the reaction, and the OD450 nm was read by a microplate reader (Biotek, Powerwave HT). […] (b) The binding activity of anti-TIGIT chimeric antibodies to CHO-K1 human TIGIT (cells with high, medium and low expression levels) and CHO-KI cynomolgus monkey TIGIT detected by FACS.
(§2) The affinity of the above humanized antibodies with human TIGIT ECD-His is detected by BIAcore, and with reference to the methods of Example 4 (a), (b), and (d), the binding activity of the above humanized antibodies to human TIGIT ECD-mFc, CHO-K1 human TIGIT, CHO-K1 cynomolgus monkey TIGIT and cynomolgus monkey TIGIT ECD-mFc, and the effect of the humanized antibodies blocking the binding between human TIGIT ECD-mFc and CHO-K1 CD155 are detected, the results are shown in Table 18.

[2] = target: T2, Fusion protein of extracellular domain …; assay: BIAcore
[3] = target: T3, Full-length human TIGIT on CHO-K1 cells …; assay: cell binding, CHO-K1 human TIGIT high expression strain
Description: (§3) The collected cells were washed once with PBS (Hyclone, CAT #SH30256), resuspended to 2×10⁵/50 μL with 1% BSA-PBS. The antibodies were diluted to 80 nM with 1% BSA-PBS (diluted by 3-fold serial dilution for 12 concentration points). The 50 μL cells were then mixed with 50 μL diluted antibodies, and then incubated at 4° C. for 60 minutes. […] After washing twice with PBS, the cell samples were resuspended with 1% BSA-PBS, 100 μL/well and then analyzed by flow cytometry (BD, Canto II). […] [0298] (c) The effect of anti-TIGIT chimeric antibodies blocking the interaction between Bio-CD155-His and CHO-K1 human TIGIT high expression cell strains detected by FACS
as §2

[4] = target: T4, Full-length cynomolgus monkey TIGIT on CHO-K1 cells (CHO-K1 cynomolgus monkey TIGIT) (cynomolgus monkey); assay: cell binding, CHO-K1 cynomolgus monkey TIGIT
T4 construct: NCBI XP_015300911.1
Description: as §3, §2

[5] = target: T2, Fusion protein of extracellular domain …; assay: BIAcore; KD ratio to TIGIT-CHI-006
[6] = target: T5, Fusion protein of extracellular domain of cynomolgus monkey TIGIT and mouse IgG2a Fc fragment (cynomolgus … (cynomolgus monkey)); assay: ELISA, cynomolgus monkey TIGIT ECD-mFc
T5 construct: The entry includes the signal peptide (limits not recoverable) and the mouse IgG2a Fc
Description: as §1, §2

[7] = target: T6, Fusion protein of extracellular domain of human TIGIT and human IgG1 Fc fragment (human TIGIT ECD-hFc) (human); assay: blocking of TIGIT ECD-hFc binding to CHO-K1 CD155 cells
T6 construct: The entry includes the signal peptide (limits not recoverable) and the human IgG1 Fc
Outline: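 The inhibition curves from which IC50 was calculated were generated by cell-based ELISA. Fixed CHO-K1 CD155 cells, blocked with 5% skim milk-PBS, were incubated at 37° C for 1.5-2 h with antibodies that had been premixed for 0.5 h with human TIGIT ECD-hFc at a working concentration of 30 ng/mL. Detection of bound TIGIT used HRP secondary antibody at 1:5000 for 1 h at 37° C, followed by TMB and reading as OD450 nm.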

T4 sequence (chain, as listed by the source limits assumed): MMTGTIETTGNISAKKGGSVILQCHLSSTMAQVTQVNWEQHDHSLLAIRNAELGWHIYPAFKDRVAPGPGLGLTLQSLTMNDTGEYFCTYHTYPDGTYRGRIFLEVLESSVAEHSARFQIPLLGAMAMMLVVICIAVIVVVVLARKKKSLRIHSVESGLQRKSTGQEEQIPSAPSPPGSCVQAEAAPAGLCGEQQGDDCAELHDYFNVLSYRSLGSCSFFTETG
T6 sequence (chain, as listed by the source limits assumed): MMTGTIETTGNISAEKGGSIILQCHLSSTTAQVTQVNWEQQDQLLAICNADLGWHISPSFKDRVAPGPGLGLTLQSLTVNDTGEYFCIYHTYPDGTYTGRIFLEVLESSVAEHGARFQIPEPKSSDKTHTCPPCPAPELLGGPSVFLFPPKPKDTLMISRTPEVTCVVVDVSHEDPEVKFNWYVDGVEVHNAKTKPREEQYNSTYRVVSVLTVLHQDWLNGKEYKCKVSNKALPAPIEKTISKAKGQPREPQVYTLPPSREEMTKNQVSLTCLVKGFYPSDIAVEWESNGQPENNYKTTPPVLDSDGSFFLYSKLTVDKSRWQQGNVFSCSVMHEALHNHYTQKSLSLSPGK

| EC50 [1] [nM] | Kd [2] [nM] | koff [2] [s⁻¹] | kon [2] [M⁻¹ s⁻¹] | EC50 [3] [nM] | binding result [4] | Fold change vs chimeric antibodies (KD) [5] [fold] | binding result [6] | IC50 [7] [nM] | EC50 [4] [nM] | EC50 [6] [nM] | Binder |
| --- | --- | --- | --- | --- | --- | --- | --- | --- | --- | --- | --- |
| 0.0111 | 0.08 | 0.000184 | 2.3e+06 | 0.0239 |  | 1.03 |  | 0.576 | 0.0849 | 0.0172 | TIGIT-006-H5L2 (antibody, V domains shown, Humanized anti-TIGIT antibody) VH: EVQLQESGPGLVKPSETLSLTCAVSGYSMTSDYWNWIRQPPGKKLEYIGYISYSGRTYYNPSLKSRVTISRDTSKNQFSLKLSSVTAADTAVYYCARGDYSNYGGAMYDWGQGTTVTVSS VL: DIVMTQTPLSLSVTPGQPASISCRASQGVSTTIAWYQQKPGQSPKLLIYSASYRYTGVPDRFSGSGSGTDFTLKISRVEAEDVGVYYCQQYYSSPFTFGGGTKVEIK |
| 0.0099 | 0.748 | 0.000208 | 279000 | 0.0494 |  | 9.66 |  | 0.709 | 1.38 | 7.44 | TIGIT-006-H3L2 (antibody, V domains shown, Humanized anti-TIGIT antibody) VH: EVQLQESGPGLVKPSETLSLTCAVSGYSMTSDYWNWIRQPPGKKLEWIGYISYSGRTYYNPSLKSRVTISRDTSKNQFSLKLSSVTAADTAVYYCARGDYSNYGGAMYDWGQGTTVTVSS VL: DIVMTQTPLSLSVTPGQPASISCRASQGVSTTIAWYQQKPGQSPKLLIYSASYRYTGVPDRFSGSGSGTDFTLKISRVEAEDVGVYYCQQYYSSPFTFGGGTKVEIK |
| 0.0108 | 0.0713 | 0.000163 | 2.29e+06 | 0.0399 |  | 0.92 |  | 0.537 | 0.162 | 0.0182 | TIGIT-006-H5L1 (antibody, V domains shown, Humanized anti-TIGIT antibody) VH: EVQLQESGPGLVKPSETLSLTCAVSGYSMTSDYWNWIRQPPGKKLEYIGYISYSGRTYYNPSLKSRVTISRDTSKNQFSLKLSSVTAADTAVYYCARGDYSNYGGAMYDWGQGTTVTVSS VL: DIVMTQTPLSLSVTPGQPASISCRASQGVSTTIAWYLQKPGQSPQLLIYSASYRYTGVPDRFSGSGSGTDFTLKISRVEAEDVGVYYCQQYYSSPFTFGGGTKVEIK |
| 0.0106 | 0.95 | 0.000382 | 403000 | 0.0383 |  | 12.3 |  | 0.528 | 0.342 | 2.88 | TIGIT-006-H2L1 (antibody, V domains shown, Humanized anti-TIGIT antibody) VH: EVQLQESGPGLVKPSETLSLTCAVSGYSMTSDYWNWIRQPPGKGLEWIGYISYSGRTYYNPSLKSRVTISRDTSKNQFSLKLSSVTAADTAVYYCARGDYSNYGGAMYDWGQGTTVTVSS VL: DIVMTQTPLSLSVTPGQPASISCRASQGVSTTIAWYLQKPGQSPQLLIYSASYRYTGVPDRFSGSGSGTDFTLKISRVEAEDVGVYYCQQYYSSPFTFGGGTKVEIK |

Continued, binder first:

| Binder | EC50 [1] [nM] | Kd [2] [nM] | koff [2] [s⁻¹] | kon [2] [M⁻¹ s⁻¹] | EC50 [3] [nM] | binding result [4] | Fold change vs chimeric antibodies (KD) [5] [fold] | binding result [6] | IC50 [7] [nM] | EC50 [4] [nM] | EC50 [6] [nM] |
| --- | --- | --- | --- | --- | --- | --- | --- | --- | --- | --- | --- |
| TIGIT-006-H1L1 (antibody, V domains shown, Humanized anti-TIGIT antibody) VH: EVQLQESGPGLVKPSETLSLTCAVSGYSITSDYWNWIRQPPGKGLEWIGYISYSGRTYYNPSLKSRVTISRDTSKNQFSLKLSSVTAADTAVYYCARGDYSNYGGAMYDWGQGTTVTVSS VL: DIVMTQTPLSLSVTPGQPASISCRASQGVSTTIAWYLQKPGQSPQLLIYSASYRYTGVPDRFSGSGSGTDFTLKISRVEAEDVGVYYCQQYYSSPFTFGGGTKVEIK | 0.0186 | 6.21 | 0.000757 | 122000 | 0.0702 | no binding | 80.3 | no binding | 1.53 |  |  |
| TIGIT-006-H2L3 (antibody, V domains shown, Humanized anti-TIGIT antibody) VH: EVQLQESGPGLVKPSETLSLTCAVSGYSMTSDYWNWIRQPPGKGLEWIGYISYSGRTYYNPSLKSRVTISRDTSKNQFSLKLSSVTAADTAVYYCARGDYSNYGGAMYDWGQGTTVTVSS VL: DIVMTQSPDSLAVSLGERATINCRASQGVSTTIAWYQQKPGQSPKLLIYSASYRYTGVPRFSGSGSGTDFTLTISSLQAEDVAVYYCQQYYSSPFTFGGGTKVEIK | 0.0103 | 0.515 | 0.000216 | 420000 | 0.0353 |  | 6.65 |  | 0.633 | 0.255 | 24.4 |
| TIGIT-006-H1L2 (antibody, V domains shown, Humanized anti-TIGIT antibody) VH: EVQLQESGPGLVKPSETLSLTCAVSGYSITSDYWNWIRQPPGKGLEWIGYISYSGRTYYNPSLKSRVTISRDTSKNQFSLKLSSVTAADTAVYYCARGDYSNYGGAMYDWGQGTTVTVSS VL: DIVMTQTPLSLSVTPGQPASISCRASQGVSTTIAWYQQKPGQSPKLLIYSASYRYTGVPDRFSGSGSGTDFTLKISRVEAEDVGVYYCQQYYSSPFTFGGGTKVEIK | 0.0183 | 5.71 | 0.000666 | 117000 | 0.105 | no binding | 73.8 | no binding | 1.58 |  |  |
| TIGIT-006-H1L3 (antibody, V domains shown, Humanized anti-TIGIT antibody) VH: EVQLQESGPGLVKPSETLSLTCAVSGYSITSDYWNWIRQPPGKGLEWIGYISYSGRTYYNPSLKSRVTISRDTSKNQFSLKLSSVTAADTAVYYCARGDYSNYGGAMYDWGQGTTVTVSS VL: DIVMTQSPDSLAVSLGERATINCRASQGVSTTIAWYQQKPGQSPKLLIYSASYRYTGVPRFSGSGSGTDFTLTISSLQAEDVAVYYCQQYYSSPFTFGGGTKVEIK | 0.0185 | 2.66 | 0.000384 | 144000 | 0.0596 | no binding | 34.4 | no binding | 1.23 |  |  |
